{"source": "paper PMC9817179", "key": {"NLS-TAF15(IDR)-Halo-FTH1": {"target": "NLS-TAF15(IDR)-Halo-FTH1 (UniProt Q92804)", "assay": "live-cell single-particle tracking (SPT), residence time in puncta; living U2OS cells at 37°C, 5% CO2; HILO illumination; PA-JF646-labelled single molecules tracked (500 ms per frame, 2000 frames) within puncta of the same protein seen with JFX549; in-puncta trajectories; specific residence time of a two-component exponential fit, corrected for photobleaching with H2B-Halo"}, "Halo-TAF15(IDR)-NLS": {"target": "Halo-TAF15(IDR)-NLS (UniProt Q92804)", "assay": "live-cell single-particle tracking (SPT), residence time in puncta; living U2OS cells at 37°C, 5% CO2; HILO illumination; PA-JF646-labelled single molecules tracked (500 ms per frame, 2000 frames) within puncta of the same protein seen with JFX549; in-puncta trajectories; specific residence time of a two-component exponential fit, corrected for photobleaching with H2B-Halo"}}, "data": [{"substance": "NLS-TAF15(IDR)-Halo-FTH1 (from UniProt Q92804 2-205)", "values": [{"measurement": "residence time (RT) at its puncta", "setting": "NLS-TAF15(IDR)-Halo-FTH1", "value": 64.2, "unit": "s"}]}, {"substance": "Halo-TAF15(IDR)-NLS (from UniProt Q92804 2-205) (domain or fragment)", "values": [{"measurement": "residence time (RT) at its puncta", "setting": "Halo-TAF15(IDR)-NLS", "value": 10.2, "unit": "s"}]}]}
